Molecular target: GST-TrbBWT (not stated | E. coli F plasmid) (UniProt P18035)
Assay: SEC-MALS; SEC-MALS-SAXS; Superdex 200 10/300 Increase, 0.6 mL/min, 5.5 mg/mL loaded, 20 mM HEPES pH 7.0, 100 mM NaCl, 5% glycerol, 0.05% NP40, 20 °C

Substance: GST-TrbBWT (from UniProt P18035 23-181)
- stoichiometry N: 2
